From patent publication US20180051082A1

Assays:
human FcRn (human) = human FcRn (human) (UniProt P55899); experiment: BIACORE-based assay, antibody bound to FcRn at pH 6.0, residual bound antibody after adjustment to pH 7.4
[1] = target: cynomolgus FcRn (cynomolgus monkey) (UniProt Q8SPV9); experiment: as above
Sequence of cynomolgus FcRn (cynomolgus monkey) (Q8SPV9 24-297): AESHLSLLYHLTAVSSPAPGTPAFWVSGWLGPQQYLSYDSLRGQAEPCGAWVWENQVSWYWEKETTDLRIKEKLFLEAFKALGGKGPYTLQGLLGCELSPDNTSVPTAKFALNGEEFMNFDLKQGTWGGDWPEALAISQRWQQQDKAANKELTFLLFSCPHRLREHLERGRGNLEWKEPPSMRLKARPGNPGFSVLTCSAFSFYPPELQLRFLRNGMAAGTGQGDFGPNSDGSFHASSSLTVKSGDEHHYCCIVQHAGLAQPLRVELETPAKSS

Sequence of human FcRn (human) (P55899 24-297 limits assumed, chain 1 of 2): as the sequence (Q8SPV9 24-297) above, with D39N, Q44E, S99G, G189S, N190S, M217L, T269S counted along it
Sequence of human FcRn (human) (P61769 21-119 limits assumed, chain 2 of 2, further chain): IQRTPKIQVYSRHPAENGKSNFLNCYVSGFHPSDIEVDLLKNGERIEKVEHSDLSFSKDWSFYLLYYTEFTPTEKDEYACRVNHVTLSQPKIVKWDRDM

For “human IgG1 version of BMS-936558, designated BMS (antibody)”, which % Residual Binding at pH 7.4 (human FcRn (human)) is on record?
The % Residual Binding at pH 7.4 was 2%.

And the % Residual Binding at pH 7.4 [1]?
The % Residual Binding at pH 7.4 was 1.7%.
